In test [1] the target is soluble recombinant mouse BAFF (mouse) (UniProt Q9WU72).
The target is the same in test [2]. The source holds these as a separate data set.

UniProt Q9WU72, sequence (Q9WU72 127-309): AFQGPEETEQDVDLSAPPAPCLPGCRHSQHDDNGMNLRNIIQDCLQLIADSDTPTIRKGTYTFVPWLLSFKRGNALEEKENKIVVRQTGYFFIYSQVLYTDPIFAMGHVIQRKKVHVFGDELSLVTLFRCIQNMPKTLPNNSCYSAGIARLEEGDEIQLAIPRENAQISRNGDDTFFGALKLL

B1: NgR1-Fc (Fc fusion)
chain: CPGACVCYNEPKVTTSCPQQGLQAVPTGIPASSQRIFLHGNRISHVPAASFQSCRNLTILWLHSNALARIDAAAFTGLTLLEQLDLSDNAQLHVVDPTTFHGLGHLHTLHLDRCGLRELGPGLFRGLAALQYLYLQDNNLQALPDNTFRDLGNLTHLFLHGNRIPSVPEHAFRGLHSLDRLLLHQNHVARVHPHAFRDLGRLMTLYLFANNLSMLPAEVLMPLRSLQYLRLNDNPWVCDCRARPLWAWLQKFRGSSSEVPCNLPQRLADRDLKRLAASDLEGCAVASGPFRPIQTSQLTDEELLSLPKCCQPDAADKASVLEPGRPASAGNALKGRVPPGDTPPGNGSGPRHINDSPFGTLPSSAEPPLTALRPGGSEPPGLPTTGPRRRPGCSRKNRTRSHCRLGQAGSGASGTGDAEGS
As to B1, in test [1], the percent of NgR1+ or NgR3+ B-cells isolated from spinal cord of EAE ngr1+/+ mice in S phase (BrdU/7AAD flow cytometry) after 50 ng/mL rBAFF pre-incubated with excess NgR-Fc was 20.6% and the percent of isolated spinal cord B-cells staying in the G0/G1 phase after rBAFF pre-incubated with excess NgR-Fc was 55.8%. In addition, in test [2], the percent of B-cells isolated from spleen entering the S phase after rBAFF pre-incubated with excess NgR-Fc was 8% and the percent of B-cells isolated from spleen halted in the G0/G1 phase after rBAFF pre-incubated with excess NgR-Fc is 85.5%.

B2: recombinant BAFF-R (receptor)
chain: MGARRLRVRSQRSRDSSVPTQCNQTECFDPLVRNCVSCELFHTPDTGHTSSLEPGTALQPQEGSALRPDVALLVGAPALLGLILALTLVGLVSLVSWRWRQQLRTASPDTSEGVQQESLENVFVPSSETPHASAPTWPPLKEDADSALPRHSVPVPATELGSTELVTTKTAGPEQ
Regarding B2, in test [1], the percent of NgR1+ or NgR3+ B-cells isolated from spinal cord of EAE ngr1+/+ mice in S phase (BrdU/7AAD flow cytometry) after 50 ng/mL rBAFF pre-incubated with excess rBAFF-R was 27.7%.

Values taken from paper PMC7858582.
